Each block holds one binder with its values, some of them ahead of it.
Key:
Conditions in all cases: both partners purified
[1] = biological target: T1, R411A-α2 (E. coli class Ia ribonucleotide reductase subunit α2 with the R411A substitution) (E. coli, UniProt P00452 1-761, R411A); assay: spectrophotometric competitive inhibition assay (enzyme activity); R411A-α2 used as the inhibitor, 10 nM to 5 μM; D2O assay buffer; relative activities in the presence of inhibitor fit to the standard Kd equation (eq. 1); average of two replicates
T1 construct: Ribonucleoside-diphosphate reductase 1 subunit alpha (α, NrdA), E. coli; GCG (Ala) inserted at position 411; the construct has an N-terminal (His)6-tag with a 10 amino acid linker; Homodimer (α2); source: E. coli, expressed from pET28a-nrdA, purified by previous protocols; pre-reduced with 30 mM DTT and 15 mM HU before use
T1 sequence: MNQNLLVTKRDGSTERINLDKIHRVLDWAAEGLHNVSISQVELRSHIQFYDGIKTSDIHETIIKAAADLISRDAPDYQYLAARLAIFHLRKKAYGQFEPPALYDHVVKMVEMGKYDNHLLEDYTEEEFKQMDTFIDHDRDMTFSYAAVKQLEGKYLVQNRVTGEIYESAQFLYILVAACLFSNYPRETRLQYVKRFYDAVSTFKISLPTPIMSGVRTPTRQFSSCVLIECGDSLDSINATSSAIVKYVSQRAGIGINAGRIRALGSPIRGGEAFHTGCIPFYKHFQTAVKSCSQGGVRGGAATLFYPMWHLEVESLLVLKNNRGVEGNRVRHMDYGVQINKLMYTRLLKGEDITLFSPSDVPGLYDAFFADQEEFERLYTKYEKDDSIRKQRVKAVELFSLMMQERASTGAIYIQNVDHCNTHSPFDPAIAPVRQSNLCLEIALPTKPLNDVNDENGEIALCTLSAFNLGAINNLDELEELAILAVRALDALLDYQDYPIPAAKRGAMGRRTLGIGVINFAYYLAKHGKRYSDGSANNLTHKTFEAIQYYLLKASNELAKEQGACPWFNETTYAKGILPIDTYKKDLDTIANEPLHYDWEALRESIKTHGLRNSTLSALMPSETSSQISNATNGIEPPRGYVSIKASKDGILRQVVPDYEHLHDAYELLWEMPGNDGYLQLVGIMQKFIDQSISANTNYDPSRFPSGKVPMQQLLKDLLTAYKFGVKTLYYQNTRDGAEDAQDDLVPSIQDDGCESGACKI

[2] = biological target: T2, NH2Y731/R411A-α2, E. coli class Ia ribonucleotide reductase subunit α2 with 3-aminotyrosine at 731 and R411A (E. coli, UniProt P00452 1-761, R411A, 3-aminotyrosine (NH2Y) at 731 in place of Y731); assay: competitive inhibition assay; Kd for α2 mutant and wt-β2, determined in H2O and D2O buffers by the competitive inhibition assay of ref. 42; details in SI-2, Fig. S2
T2 construct: E. coli class Ia ribonucleotide reductase subunit alpha (nrdA) with R411A and the unnatural amino acid 3-aminotyrosine incorporated at position 731; a 10 amino acid linker follows the N-terminal (His)6-tag; With β2, CDP and ATP the 3-aminotyrosine at 731 is oxidised to the radical NH2Y731˙ (ND2Y731˙ in D2O); also called ND2Y731˙/R411A-α2; ND2Y731˙/R411A-α; source: pre-reduced with 30 mM DTT and …
T2 sequence (looked up): T1 sequence

[3] = biological target: T3, R411A-α2, E. coli class Ia ribonucleotide reductase subunit α2 with R411A (E. coli, UniProt P00452 1-761, R411A); assay: as above
T3 construct: E. coli class Ia ribonucleotide reductase subunit alpha (nrdA) with R411A; a 10 amino acid linker follows the N-terminal (His)6-tag; source: pre-reduced with 30 mM DTT and 15 mM HU before use
T3 sequence (looked up): T1 sequence

- Kd [1]: 900 ± 190 nM
B1: wt-β2 (E. coli class Ia ribonucleotide reductase subunit β2, wild type) (enzyme, UniProt P69924 1-376, looked up)
chain: MAYTTFSQTKNDQLKEPMFFGQPVNVARYDQQKYDIFEKLIEKQLSFFWRPEEVDVSRDRIDYQALPEHEKHIFISNLKYQTLLDSIQGRSPNVALLPLISIPELETWVETWAFSETIHSRSYTHIIRNIVNDPSVVFDDIVTNEQIQKRAEGISSYYDELIEMTSYWHLLGEGTHTVNGKTVTVSLRELKKKLYLCLMSVNALEAIRFYVSFACSFAFAERELMEGNAKIIRLIARDEALHLTGTQHMLNLLRSGADDPEMAEIAEECKQECYDLFVQAAQQEKDWADYLFRDGSMIGLNKDILCQYVEYITNIRMQAVGLDLPFQTRSNPIPWINTWLVSDNVQVAPQEVEVSSYLVGQIDSEVDTDDLSNFQL
modifications: tyrosyl radical at Y122 (1.2 Y•/β2), di-iron cofactor
notes: Ribonucleoside-diphosphate reductase 1 subunit beta (β, NrdB), E. coli, wild type; Y122 is Y123 in P69924); Homodimer (β2); source: expressed and purified by standard protocols (7000 nmol min^-1 mg^-1, 1.2 Y•/β2)

- Kd [2]: 8 ± 1 nM
- Kd [3]: 940 ± 330 nM
B2: wt-β2, E. coli class Ia ribonucleotide reductase subunit β2 (enzyme, UniProt P69924 1-376, looked up)
chain: B1 chain
modifications: tyrosyl radical at Y122 (1.2 Y˙/β2)
notes: E. coli class Ia ribonucleotide reductase subunit beta, with the di-iron tyrosyl radical cofactor (FeIII2–Y122˙)
